Source: the DeepSol protein solubility set

Experiment: soluble on expression in E. coli; label from the status in PepcDB or PDB records

Soluble on expression in E. coli, not soluble:
MAAEKKVFVIFDHQEQRHDQPWPSYHIEVPRRLDAILERLNTTKLLTDPRIEHIPRREAEESEILAVHTKRYVDDVKSTETMTVEQQESFCTKYEDIYVNSATWHRAKLAAGASIDLMTSVMAAKRPGIAFIRPPGHHAMPDEGCGFCIFNNVAIAAKAAIQNGQKVLIVDYDVHAGNGTQECVEQMGEGNVQLISIHRYENGHFWPNMPQTGIYHNYKNTINLPLNTIGLTDADYHALFTHIILPTIHAFQPDLLLVSSGFDASIGDPEGSMQVTPAGFATMIRMLIDTGIPVAALLEGGYFLDALAADSEWVLRALLGEEIPRIRVEKIHSAIADTIGRVVKRYEGSCPFFKKVQELRGILGCRVAEEDQQEEATDYTGERTVHPPYETRGIYTPFTEQKVAEFKDQLESILASYTTPPDFSAETEAFHSAIAPHSSEINDFYFGVHEDKILLGTSPAVRLFFELLFTAPYDPKHTIKLYGKVKPEDFGKIELDSRSLGEMKNISIFNNLPIFQL, MHKRATSPLSAARTRRKPHGWKKREDDGVGGRFLSIGECMVELSQAGNGLLRKGFAGDTFNAAWYARACLPQDWSVDYFTALGDDPLSEDMLAFIAEAGIGTEKIRRIKGGTPGLYLINLKDGERTFSYWRNAAAARQLAADADHLRKTVESADVVYFSGITLAILASAHDVDTFLAELRRARAAGKLVVFDPNIRPRLWADRDVMLETISNGARAATLVMPSFDDEASHFGDVSVEATIARYRSLGVENIVVKDGAKGATLDFGGSRSHAPAEKAVDVVDTTSAGDSFNGAFLARYVTGSSPEEAATFAARAAATVIGHHGALISPELLPLVG, MRTVALGIVAMACLVAIAHGGNFFQDAEVSWGQGRGKIVDGGRGLDLTLDRSSGSGFQSKSEYLFGKIDMQIKLVPGGWWNQELSDMSYRRMRWVQRKFMIYNYCTDAKRFPQGTPAECKLR, MGSDKIHHHHHHMKPERILNVPGAVNFRELGGYQTKFNQTIKWQKLLRSGELSHLTPRTQALLADYGLKYDIDLRSPAEASWSSDKIPAQTIYRFYPVYPIQDNEKSDLPQNKHLKYQAYEQSLYDPYLTMAFSEHSRIAFHQMFVDLLANTNEKESLLFHCAAGKDRTGMAGMLILSALQVPYQTIREDYLLTNLVYSNQDPDELRRQITGKHVDKLIQKMNSVFSVTASSLDHTHDLILDRFGSFDHYFKEALEFSDQDLADLRQIYLE, MGSDKIHHHHHHMPSFKTYPLESIGYDEALRKQFRLVDEITRHFKGSEFLSRGDLGVVPGLNRPRYTKRVEEILAAYFHAEAAMLVRGAGTAAIRMALHSYLTAGQTLLVHDAPIYPTTQTSIEMMSLRTIRADFNDLNHQQLPESPDGILVQYTRQKPDDSYDMAKVLAFFKQRYPSVPIVTDDNYAVMKVHKIGVELGASLSCFSTFKLLGPEGIGCIVGDKSAIQKLRSANYSGGSQVQGHEAIDVLRGLTYAPVALAAQANVVTELVERLNGNEIPGISEAYVANAQSKVLLVEFNQPIAEKVLKYTNDLGAAPNPVGAESKYEIAPMFYRVSGTFKKFDPNLLKTTIRINPYRCGADTIMRILAESVEKVMA, MDRRTFLKSASMKGTAIVTASAVGTEMLHAAESIGASDVASGKRNAPKAKRLPEDLQELVKDSSLLRKPDNLTVACYTFPNYHASALHDKIYGPGWTEYNLVRSARPWFQGHAQPRGPLLGEMDESKPGTWEKYNELCKQSGIDVLIWDWYWYNNEPCLHEALENGFLRASNRNDVKFACMWTNHPWYVLYPTLLPNGYKAYPPSFAPADGSLKECWQSLSYIISRYCHLENYWRIDDKPVVCIWDPNRLEKNIGVDGVKQLFAELTEFARKLGHKGLHFHSSGFYSPNSKEVGYNTAGSYNPFTWVADNYQPKNIELPDYGVAAADVAFKLWPKHHDDFAIPYLPSLSPGWDSTPRYIPPVSRPDQPNRDAWPNCVILDNENPASFKALVQSAFAYLNKHKDVPPILTIACFNEWTEGHYLLPDNRFGYGMLDALAEAVGKSDNHQIHGFFLEHHHHHH, MDTSLPSAILNNMVTATLILDDGLAIRYANPAAELLFSQSAKRIVEQSLSQLIQHASLDLALLTQPLQSGQSITDSDVTFVVDGRPLMLEVTVSPITWQRQLMLLVEMRKIDQQRRLTQELNQHAQQQAAKLLVRGLAHEIKNPLGGLRGAAQLLEKMLPDPSLTEYTHIIIEQADRLRALVDRLLGPQKPGK
